Results on one substance are retold here after publication PMC4609290.

The target in the test is H3(15-34) peptide (UniProt P68431). The test can be described thus: ITC. (Isothermal titration calorimetry measures the heat released or taken up as one component is titrated into another.)

By Kd is commonly meant the equilibrium constant for the complex coming apart. High values mean lower affinity, low ones higher affinity. As for “AF10PZP (as used for ITC) (from UniProt P55197-1 1-208) (domain or fragment)”, the dissociation constant Kd amounted to 5 µM.
